Test results: article PMC11549370, “Two distinct regulatory pathways govern Cct2-Atg8 binding in the process of solid aggrephagy” (EMBO Reports, 2024)
Each block holds one molecule with its values, some of them ahead of it.

Legend:
Atg11 = Atg11 (UniProt Q12527); assay: anti-FLAG co-IP, anti-HA blot; settings: reference: wild-type 3×HA-Cct2; sites S412,S470
LC3C = LC3C (UniProt Q9BXW4); assay: anti-FLAG co-IP, anti-HA blot; settings: reference: HA-CCT2 wild type; sites S458
[1] = target: T1, GST-Cct2 phosphorylated in vitro by Atg1 (S. cerevisiae, UniProt P39076 1-527, phosphorylated by Atg1; the paper maps the sites to S412 and S470); assay: pull-down; GST-Cct2 first incubated with Atg1-3×FLAG and ATP (30 °C, 30 min), enriched on GST beads, then His-Atg8 or Atg11 CC4 added in interaction buffer (1 mM EDTA, 1 mM EGTA, 150 mM NaCl, 1% Triton X-100 in 1×PBS), 2 h, 4 °C; Coomassie staining; settings: both partners purified
T1 construct: Cct2, S. cerevisiae; also called phosphorylated GST-Cct2 WT; phosphorylated products; source: E. coli, purified, then incubated with WT Atg1-3×FLAG (from yeast) and ATP and enriched on GST beads; not shown: GST, N-terminal, kept

[2] = target: T2, GST-Cct2 S412A-S470A (2A) (S. cerevisiae, UniProt P39076 1-527, S412A | S470A); assay: pull-down; in vitro GST pulldown: GST-tagged protein on GST beads, prey added in binding buffer B (1 mM EDTA, 1 mM EGTA, 150 mM NaCl, 1% Triton X-100 in 1×PBS), 3 h, 4 °C; SDS-PAGE, Coomassie staining; settings: both partners purified
T2 construct: Cct2, S. cerevisiae; also called Cct2-2A mutant protein; pGEX-4T-1-Cct2 S412A-S470A(2A); source: E. coli, purified; not shown: GST, N-terminal, kept

GST-Cct2 = target: T3, GST-Cct2 (S. cerevisiae, UniProt P39076 1-527); assay: as above; settings: both partners purified
T3 construct: Cct2, subunit of the TRiC complex, S. cerevisiae; the CCT2 gene cloned into pGEX-4T-1; also called WT GST-Cct2; pGEX-4T-1-Cct2; source: E. coli, purified; not shown: GST, N-terminal, kept

GST-Cct2 D473A = target: T4, GST-Cct2 D473A (S. cerevisiae, UniProt P39076 1-527, D473A); assay: as above; settings: both partners purified
T4 construct: Cct2, S. cerevisiae; also called pGEX-4T-1-Cct2 D473A; source: E. coli, purified; not shown: GST, N-terminal, kept

GST-Cct2 I487E = target: T5, GST-Cct2 I487E (S. cerevisiae, UniProt P39076 1-527, I487E); assay: as above; settings: both partners purified
T5 construct: Cct2, S. cerevisiae; also called pGEX-4T-1-Cct2 I487E; source: E. coli, purified; not shown: GST, N-terminal, kept
T5 sequence (P39076 whole entry I487E): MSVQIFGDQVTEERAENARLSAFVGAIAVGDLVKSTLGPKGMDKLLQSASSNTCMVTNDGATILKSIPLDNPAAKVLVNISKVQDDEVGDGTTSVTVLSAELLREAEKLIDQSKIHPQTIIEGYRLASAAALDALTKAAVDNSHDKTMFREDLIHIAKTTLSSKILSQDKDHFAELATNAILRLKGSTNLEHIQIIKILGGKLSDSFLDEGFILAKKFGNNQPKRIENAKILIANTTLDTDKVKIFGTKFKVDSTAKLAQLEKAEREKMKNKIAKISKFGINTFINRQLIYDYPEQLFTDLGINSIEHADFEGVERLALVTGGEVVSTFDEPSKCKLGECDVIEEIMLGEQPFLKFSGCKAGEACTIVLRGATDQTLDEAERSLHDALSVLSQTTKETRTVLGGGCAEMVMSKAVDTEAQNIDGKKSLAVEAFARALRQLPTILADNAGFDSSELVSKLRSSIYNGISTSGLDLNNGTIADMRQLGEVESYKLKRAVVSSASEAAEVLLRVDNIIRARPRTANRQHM

T4 sequence (P39076 whole entry D473A): as the sequence (P39076 whole entry I487E) above, with D473A, E487I counted along it
T2 sequence (P39076 whole entry S412A/S470A): as the sequence (P39076 whole entry I487E) above, with S412A, S470A, E487I counted along it
T1 sequence (P39076 whole entry): as the sequence (P39076 whole entry I487E) above, with E487I counted along it
T3 sequence (P39076 whole entry): as the sequence (P39076 whole entry I487E) above, with E487I counted along it

- binding against the reference (Atg11): weaker
Molecule: Cct2 (from UniProt P39076) 3×HA-Cct2 S412A-S470A

- binding against the reference (LC3C): weaker
Molecule: CCT2 (hCCT2) (from UniProt P78371) HA-CCT2 S458A

- binding result [1]: binds
- binding result [2]: binds
- binding result (GST-Cct2): binds
- binding result (GST-Cct2 D473A): binds
- binding result (GST-Cct2 I487E): binds
B1: His-Atg8 (natural protein, S. cerevisiae, UniProt P38182 1-117, looked up)
chain: MKSTFKSEYPFEKRKAESERIADRFKNRIPVICEKAEKSDIPEIDKRKYLVPADLTVGQFVYVIRKRIMLPPEKAIFIFVNDTLPPTAALMSAIYQEHKDKDGFLYVTYSGENTFGR
notes: Atg8, S. cerevisiae; source: E. coli, purified; not shown: His, N-terminal, kept
